Consider one substance from patent publication US12186436B2, “Triblock copolymer stabilizers for the formation of nanoparticles encapsulating soluble biologics, therapeutics, and imaging agents” (The Trustees of Princeton University, priority 2018, dated 2025).

The data set is described as follows: Release of biologic from nanoparticles in release buffer (fluorescence of soluble biologic after 100 kDa ultrafiltration). The class given is physicochemical. The settings on record: nanoparticles made by Process 2.

Procedure: Release can be studied by diluting the final concentrated nanoparticle solution after ultrafiltration into the desired release buffer. The solutions can then be incubated under the required conditions of temperature and agitation. A suitable method to separate nanoparticles from released biologic can be employed at periodic time points to evaluate the released fraction. In one embodiment, ultrafiltration with a 100 kDa molecular weight cut-off is used to separate released biologic from the nanoparticles containing biologic that is still encapsulated.
Residual acetone and unencapsulated biologic were removed by rinsing on a 100 kDa Amicon ultrafilter that had been pre-blocked to prevent non-specific adsorption. The nanoparticle solution was concentrated to around 15-20 mg/ml and rinsed with deionized water twice using a volume that was about 3-4 times the concentrated volume. The flow-through streams were analyzed by fluorescence to determine encapsulation efficiency. The nanoparticles were resuspended in the indicated release buffer and placed on a shaker table at 37° C. for release. […] Particle size was characterized by Dynamic Light Scattering (DLS) using a Zetasizer Nano ZS.
Temperature was controlled in the centrifugation process to either 5° C. or 20° C. […] The flow-through streams were analyzed by fluorescence to determine encapsulation efficiency. […]

lysozyme: the “time for lysozyme release to reach 90%” value lay in the range of 20 to 30 h.
